Experimental data from paper PMC9367177 (iScience, 2022).
Substitutions are numbered along the chain they refer to.

B1: eCC6.33.5 (antibody, V domains shown)
VH: QVQLVQSGAEVKKPGSSVKVSCKAVGGTFSSSAIYWVRQAPGQGLEWMGGIIPILDIANYAQKFQGRVTITADKSTSTAFMELSSLRSEDTAVYYCALRNQWDLVVYWGQGTLVTVSS
VL: EIVLTQSPGTLSLSPGERATLSCHASQSVSSSYLAWYQQKPGQAPRLLIYGAESRATGIPDRFSGSGSGTDFTLTISRLEPEDFAVYYCQHYGSSTWTFGQGTKLEIK
notes: copies: 2 + 2
B2: eCC6.33.9 (antibody, V domains shown)
VH: B1 VH with A24S, V25S, I34Y, Y35S, G50T, A58T, L98Q, V105I
VL: B1 VL with H24R, S28W, L34I, T96S
notes: copies: 2 + 2
B3: eCC6.33.6 (antibody, V domains shown)
VH: B1 VH with V25P, Y35S, A58T, N59T, V105L, V106I
VL: B1 VL with H24R, S32H, E53S, A56Y, T96H
notes: copies: 2 + 2
B4: eCC6.30.9 (antibody, V domains shown)
VH: QVQLVQSGAEVKKPGSSVKVSCKASGGIFSIYAITWVRQAPGQGLEWMGAIIPIIGTANYAQKFQGRVTITADKSTSTAYMELSSLRSEDTAVYYCARDFRYCSSTRCYFNFDPWGQGTLVTVSS
VL: DIQMTQSPSSLSASVGDRVTITCRASQSISNYLNWYQQEAGKAPKLLIYTASSLQSGVPSRFSGSGSGTDFTLTISSLQPEDFATYYCQQSYSTPRTFGQGTKVDIK
notes: copies: 2 + 2

Biological target: T1, SARS-CoV-2 RBD (Wuhan-1) (SARS-CoV-2, Wuhan-1, UniProt P0DTC2)
T1 construct: source: Expi293, transfected, purified (Ni-NTA, SEC)
Test: SPR
Settings: both partners purified

Binder | Kd [nM] | koff [s⁻¹] | kon [M⁻¹ s⁻¹]
B1 | 17.3 | 0.00411 | 237000
B2 | 14.3 | 0.00218 | 153000
B3 | 13.3 | 0.00167 | 126000
B4 | 0.0788 | 0.000202 | 2.57e+06
